Legend:
[1] = biological target: T1, sLTβR (UniProt P36941 31-227, limits assumed); test: isothermal titration calorimetry at 30 °C, Fab titrated into sLTβR in PBS
T1 construct: Used in solution in ITC and as the analyte in SPR; also called soluble lymphotoxin beta receptor; antigen
Experimental: The Fab and sLTβR were concentrated to 6.0 and 2.0 mg/mL, respectively, using Amicon ultracentrifugal filter devices (MWCO 10,000). The concentrated stock solutions were simultaneously dialyzed against PBS prior to the ITC measurements. ITC was performed on a VP-ITC unit (MicroCal LLC, Northampton, Mass.) set to 30° C. Approximately 500 μL of a 7 μM sLTβR solution was placed into the sample cell and PBS dialysate was placed in the reference cell. […] ITC curves were analysed using the Origin Software supplied by the manufacturer.

[2] = biological target: T2, LTβR-Ig (UniProt P36941 31-227, limits assumed); test: thermal challenge assay; T50 = temperature at which 50% of the molecules keep binding to plate-coated LTβR-Ig (DELFIA); unit taken from the x axis
T2 construct: extracellular domain; also called LTβR Ig receptor; recombinantly produced LTβR receptor; not shown: human Fc region

[3] = biological target: T1, sLTβR; test: SPR (Biacore 3000); with VH44/VL100 disulfide (second 'VH-S16Q, VL-S46L' row, below the disulfide wild-type)

T1 sequence (P36941 31-227 limits assumed): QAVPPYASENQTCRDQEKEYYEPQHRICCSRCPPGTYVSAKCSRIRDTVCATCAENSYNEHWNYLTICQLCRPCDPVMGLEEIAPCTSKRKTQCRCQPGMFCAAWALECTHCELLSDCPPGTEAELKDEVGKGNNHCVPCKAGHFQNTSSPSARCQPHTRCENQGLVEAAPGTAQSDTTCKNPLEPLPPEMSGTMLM
T2 sequence (P36941 31-227 limits assumed): as above

Kd [1] | T50 [2] | Kd [3] | Binder
1.9 nM | 62 °C |  | BHA10 Fab (Fab, V domains shown, Made by enzymatic cleavage of BHA10 IgG1; also called BHA10 Fab (CHO)) VH: QVQLVQSGAEVKKPGSSVKVSCKASGYTFTTYYLHWVRQAPGQGLEWMGWIYPGNVHAQYNEKFKGRVTITADKSTSTAYMELSSLRSEDTAVYYCARSWEGFPYWGQGTTVTVSS VL: DIQMTQSPSSLSASVGDRVTITCKASQNVGINVAWYQQKPGKAPKSLISSASYRYSGVPSRFSGSGSGTDFTLTISSLQPEDFATYFCQQYDTYPFTFGQGTKVEIK
 |  | 3.3 nM | BHA10 scFv VH44/VL100 disulfide, VH-S16Q, VL-S46L, (G4S)4 linker (scFv, name in Kabat numbering, It is read here as the disulfide version; also called pIEH081) scFv: QVQLVQSGAEVKKPGQSVKVSCKASGYTFTTYYLHWVRQAPGQCLEWMGWIYPGNVHAQYNEKFKGRVTITADKSTSTAYMELSSLRSEDTAVYYCARSWEGFPYWGQGTTVTVSSGGGGSGGGGSGGGGSGGGGSDIQMTQSPSSLSASVGDRVTITCKASQNVGINVAWYQQKPGKAPKLLISSASYRYSGVPSRFSGSGSGTDFTLTISSLQPEDFATYFCQQYDTYPFTFGCGTKVEIK
